Source: US9012166B2, “Method for assaying histone methylation enzyme activity” (Kyushu Institute of Technology, priority 2010, dated 2015)
*: point of attachment. AMC = Cc1cc(=O)oc2cc(N*)ccc12

Target: T1, G9a (GST-mG9a) (Mus musculus, UniProt Q9Z148)
T1 sequence (Q9Z148 1-1263): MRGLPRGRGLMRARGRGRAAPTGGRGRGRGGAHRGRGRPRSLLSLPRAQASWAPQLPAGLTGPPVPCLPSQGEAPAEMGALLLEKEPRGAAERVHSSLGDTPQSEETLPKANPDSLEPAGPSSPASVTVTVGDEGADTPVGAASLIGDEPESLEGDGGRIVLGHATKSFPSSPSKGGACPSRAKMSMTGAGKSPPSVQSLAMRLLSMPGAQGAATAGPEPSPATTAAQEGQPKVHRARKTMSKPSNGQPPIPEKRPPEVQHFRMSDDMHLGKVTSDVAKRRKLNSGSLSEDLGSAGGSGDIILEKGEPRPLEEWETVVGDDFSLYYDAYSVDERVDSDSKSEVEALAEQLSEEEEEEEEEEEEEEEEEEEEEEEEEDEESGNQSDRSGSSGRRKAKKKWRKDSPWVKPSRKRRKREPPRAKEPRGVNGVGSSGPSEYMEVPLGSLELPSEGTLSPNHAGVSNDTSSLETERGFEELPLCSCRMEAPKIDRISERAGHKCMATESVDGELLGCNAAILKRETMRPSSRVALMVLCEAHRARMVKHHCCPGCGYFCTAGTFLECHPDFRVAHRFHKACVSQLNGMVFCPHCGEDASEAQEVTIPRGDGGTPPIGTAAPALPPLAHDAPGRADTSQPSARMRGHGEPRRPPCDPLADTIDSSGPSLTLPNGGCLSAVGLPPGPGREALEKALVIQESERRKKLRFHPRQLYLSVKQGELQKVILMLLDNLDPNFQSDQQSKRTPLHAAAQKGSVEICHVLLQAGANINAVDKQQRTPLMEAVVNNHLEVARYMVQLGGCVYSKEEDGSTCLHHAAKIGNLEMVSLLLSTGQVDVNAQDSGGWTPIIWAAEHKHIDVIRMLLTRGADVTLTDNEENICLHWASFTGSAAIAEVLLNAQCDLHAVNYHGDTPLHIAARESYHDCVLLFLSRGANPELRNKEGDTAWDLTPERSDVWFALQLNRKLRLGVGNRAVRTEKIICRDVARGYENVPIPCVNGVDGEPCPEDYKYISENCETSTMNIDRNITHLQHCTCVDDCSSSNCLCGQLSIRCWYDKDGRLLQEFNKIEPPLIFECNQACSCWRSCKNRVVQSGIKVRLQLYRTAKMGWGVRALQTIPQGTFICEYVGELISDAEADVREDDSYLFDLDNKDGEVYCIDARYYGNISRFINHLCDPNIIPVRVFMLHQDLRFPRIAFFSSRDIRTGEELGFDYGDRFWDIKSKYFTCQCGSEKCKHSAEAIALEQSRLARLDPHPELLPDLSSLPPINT
Assay: Substrate specificity / methylation of substrate compounds by G9a
Type: biochemical
Settings: Example 4; BocLysMCA 0.009 mM to 0.09 mM; G9a 0-0.15 μg/μL; FIG. 9
Method: Distilled water was added to 10 μL of 2×HMT buffer (100 mM Tris-HCl (pH 8.5), 20 mM MgCl2, 40 mM KCl, 20 mM 2-mercaptoethanol, 500 mM sucrose), 2 μL of a BSA solution (30 μg/mL), and a predetermined concentration (final concentration: 0, 0.015, 0.05, or 0.15 μg/μL) of a histone methyltransferase (G9a) solution to adjust the total volume to 16 μL. Thereafter, the resultant solution was incubated at room temperature for 1 hour. Then, 2 μL of S-adenosylmethionine (SAM) (10 mM) and 2 μL of BocLysMCA (final concentration: 0.009 mM, 0.03 mM, or 0.09 mM) were added thereto, which was mixed and then incubated at 37° C. for 1 hour. Subsequently, 30 μL of a trypsin solution (20 mg/mL) was added thereto, followed by incubation at 37° C. for 15 minutes. The fluorescence intensity of the solution was measured at an excitation wavelength (λex) of 390 nm and a fluorescence wavelength (λem) of 460 nm.
When G9a was adopted as a histone methyltransferase, the following method was used. 10 μL of 2×HMT buffer (100 mM Tris-HCl (pH 8.5), 20 mM MgCl2, 40 mM KCl, 20 mM 2-mercaptoethanol, 500 mM sucrose), 0.4 μL of a BSA solution (150 μg/mL), 4.5 μL of GST-mG9a (0, 0.022 to 0.66 μg/μL), and 1.1 μL of distilled water were mixed and then incubated at room temperature for 1 hour. Then, 2 μL of SAM (10 mM) and 2 μL of a peptidyl MCA solution (0.6 mM) were added thereto, which was then incubated at 37° C. for 1 hour. Thereafter, 30 μL of a trypsin solution (20 mg/mL) was added thereto, followed by incubation at 37° C. for 15 minutes. Then, the fluorescence intensity of the solution was measured at an excitation wavelength (λex) of 390 nm and a fluorescence wavelength (λem) of 460 nm. The final concentration of GST-mG9a during the measurement of fluorescence intensity was 0, 0.005, 0.015, 0.05, or 0.15 μg/μL. The results of the assay for measuring histone methyltransferase activity are shown in the left panel of FIG. 14.
When G9a was adopted as a histone methyltransferase, the following method was used. 10 μL of 2×HMT buffer (100 mM Tris-HCl (pH 8.5), 20 mM MgCl2, 40 mM KCl, 20 mM 2-mercaptoethanol, 500 mM sucrose), 0.4 μL of a BSA solution (150 μg/mL), 3.6 μL of GST-mG9a (0, 0.028, 0.083, 0.28, 0.83 μg/μL), and 4 μL of distilled water were mixed and then incubated at room temperature for 1 hour. Then, 1 μL of SAM (20 mM) and 1 μL of a peptidyl MCA solution (1.2 mM) were added thereto, which was then incubated at 37° C. for 1 hour. Thereafter, 30 μL of a trypsin solution (20 mg/mL) was added thereto, followed by incubation at 37° C. for 15 minutes. Then, the fluorescence intensity of the solution was measured at an excitation wavelength (λex) of 390 nm and a fluorescence wavelength (λem) of 460 nm. The final concentration of GST-mG9a during the measurement of fluorescence intensity was 0, 0.005, 0.015, 0.05, or 0.15 μg/μL. The results of the assay for measuring histone methyltransferase activity are shown in the left panel of FIG. 16.
When G9a was adopted as a histone methyltransferase, the following method was used. 10 μL of 2×HMT buffer (100 mM Tris-HCl (pH 8.5), 20 mM MgCl2, 40 mM KCl, 20 mM 2-mercaptoethanol, 500 mM sucrose), 0.4 μL of a BSA solution (150 μg/mL), 4 μL of GST-mG9a (0, 0.025 to 0.75 μg/μL), and 3.6 μL of distilled water were mixed and then incubated at room temperature for 1 hour. Then, 1 μL of SAM (final concentration: 1 mM) and 1 μL, of a peptidyl MCA solution (1.2 mM) were added thereto, which was then incubated at 37° C. for 1 hour. Thereafter, 30 μL of a trypsin solution (20 mg/mL) was added thereto, followed by incubation at 37° C. for 15 minutes. Then, the fluorescence intensity of the solution was measured at an excitation wavelength (λex) of 330 nm and a fluorescence wavelength (λem) of 380 nm or at an excitation wavelength (λex) of 390 nm and a fluorescence wavelength (λem) of 460 nm. The final concentration of GST-mG9a during the measurement of fluorescence intensity was 0, 0.005, 0.015, 0.05, or 0.15 μg/μL.

Row | Compound | fluorescence intensity of AMC after G9a reaction and trypsin
1 | Cc1cc(=O)oc2cc(NC(=O)C(CCCCN)NC(=O)OC(C)(C)C)ccc12 (stereo not shown) [BocLysMCA, Boc-K-MCA] | decreased in a manner dependent on the concentration of the histone methyltransferase G9a

Same assay, conditions: Example 6; GST-mG9a 0-0.15 μg/μL; left panel of FIG. 14

Row | Compound | methylation of peptidyl MCA by G9a
2 | Ac-ARK-MCA (Ac-Ala-Arg-Lys-{AMC}; SMILES CC(=O)N[C@@H](C)C(=O)N[C@@H](CCCNC(=N)N)C(=O)N[C@@H](CCCCN)C(=O)Nc1ccc2c(C)cc(=O)oc2c1; listed as Homo sapiens) [Ac-histone H3 (7-9/25-27)-MCA, acetyl-ARK (human histone H3 7-9 or 25-27)-MCA substrate] | methylation often occurred
3 | Ac-ARTK-MCA (Ac-ARTK-{AMC}; SMILES CC(=O)N[C@@H](C)C(=O)N[C@@H](CCCNC(=N)N)C(=O)N[C@H](C(=O)N[C@@H](CCCCN)C(=O)Nc1ccc2c(C)cc(=O)oc2c1)[C@@H](C)O; listed as Homo sapiens) [Ac-histone H3 (1-4)-MCA] | little methylation occurred
4 | Ac-ARTKQTARK-MCA [Ac-histone H3 (1-9)-MCA] | methylation often occurred
5 | Ac-KAARK-MCA (Ac-KAARK-{AMC}; SMILES CC(=O)N[C@@H](CCCCN)C(=O)N[C@@H](C)C(=O)N[C@@H](C)C(=O)N[C@@H](CCCNC(=N)N)C(=O)N[C@@H](CCCCN)C(=O)Nc1ccc2c(C)cc(=O)oc2c1; listed as Homo sapiens) [Ac-histone H3 (23-27)-MCA] | methylation often occurred
6 | Ac-LKSK-MCA (Ac-LKSK-{AMC}; SMILES CC(=O)N[C@@H](CC(C)C)C(=O)N[C@@H](CCCCN)C(=O)N[C@@H](CO)C(=O)N[C@@H](CCCCN)C(=O)Nc1ccc2c(C)cc(=O)oc2c1; listed as Homo sapiens) [Ac-p53 (369-372)-MCA] | little methylation occurred
7 | Ac-QLATKAARK-MCA (Ac-QLATKAARK-{AMC}; SMILES CC(=O)N[C@@H](CCC(N)=O)C(=O)N[C@@H](CC(C)C)C(=O)N[C@@H](C)C(=O)N[C@H](C(=O)N[C@@H](CCCCN)C(=O)N[C@@H](C)C(=O)N[C@@H](C)C(=O)N[C@@H](CCCNC(=N)N)C(=O)N[C@@H](CCCCN)C(=O)Nc1ccc2c(C)cc(=O)oc2c1)[C@@H](C)O; listed as Homo sapiens) [Ac-histone H3 (19-27)-MCA] | methylation often occurred
8 | Ac-QTARK-MCA [Ac-histone H3 (5-9)-MCA] | methylation often occurred

Same assay, conditions: Example 13; AMC and peptidyl MCA fluorescence; FIGS. 25 and 26

Row | Compound | methylation of peptidyl MCA by GST-mG9a
9 | Ac-ARTKQTARK-MCA [Ac-histone H3 (1-9)-MCA] | methylates
10 | Ac-KRSK-MCA (Ac-KRSK-{AMC}; SMILES CC(=O)N[C@@H](CCCCN)C(=O)N[C@@H](CCCNC(=N)N)C(=O)N[C@@H](CO)C(=O)N[C@@H](CCCCN)C(=O)Nc1ccc2c(C)cc(=O)oc2c1; listed as Homo sapiens) [Ac-ERα (299-302)-MCA] | does not methylate
